Results taken from US20220363769A1 (SORRISO PHARMACEUTICALS, published 2022).
Where a chain is given by its changes, count along the chain named. Numbers in names are those of the source. Where two headings read alike, the source gives them in different places.

T1: recombinant human IL-7Rα-His6-Fc (human, UniProt P16871 21-239)
T1 construct: also called hIL-7R; not shown: His6 tag; Fc (captured by anti-human IgG Fc)
T1 chain: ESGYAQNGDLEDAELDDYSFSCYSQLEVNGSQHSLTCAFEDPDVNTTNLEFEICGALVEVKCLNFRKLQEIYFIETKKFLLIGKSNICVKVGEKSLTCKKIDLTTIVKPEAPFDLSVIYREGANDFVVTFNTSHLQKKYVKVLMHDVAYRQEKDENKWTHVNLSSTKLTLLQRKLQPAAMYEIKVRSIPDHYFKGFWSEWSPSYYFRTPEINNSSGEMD

B1: V7R-2E9 (VHH)
VHH: EVQLVESGGGLVQAGGSLRLSCESSISTFSSDAMGWFRQAPGKEREFLAAIGWSGAVTHYSDSVQGRFTISRDNAKNTVYLQMNSLKSEDTGRYYCAEDYDTDVWQYWGQGTQVTVSS
notes: llama ICVD, primary clone, expressed in E. coli TG1; parent of the ID-A series; not shown: C-terminal FLAG and 6xHis tags from vector pMEK222
B2: V7R-2F6 (VHH)
VHH: B1 VHH with S27G, A56T
notes: llama ICVD, primary clone, expressed in E. coli TG1; not shown: C-terminal FLAG and 6xHis tags from vector pMEK222
B3: ID-A37U (VHH)
VHH: B1 VHH with E44G, Q65K, K87R
notes: V7R-2E9 with E44G, Q65K, K87R
B4: V7R-6C12 (VHH)
VHH: B1 VHH with Q65K, D101V
notes: llama ICVD, primary clone, expressed in E. coli TG1; also called IL-7R-6C12; not shown: C-terminal FLAG and 6xHis tags from vector pMEK222
B5: V7R-2E5 (VHH)
VHH: B1 VHH with A14P
notes: as for B2
B6: ID-A36U (VHH)
VHH: B1 VHH with K87R, S88A
notes: V7R-2E9 with K87R, S88A
B7: V7R-3B5 (VHH)
VHH: B1 VHH with A14V
notes: as for B2
B8: V7R-4F6 (VHH)
VHH: B1 VHH with S30G, L48V, I51T, Q65K, R93T
notes: as for B2
B9: ID-A38U (VHH)
VHH: B1 VHH with E44G, Q65K, S88A
notes: V7R-2E9 with E44G, Q65K, S88A
B10: ID-A62U (VHH)
VHH: B1 VHH with E1D, R45L, Q65K, K87R, S88A
notes: V7R-2E9 with E1D, R45L, Q65K, K87R, S88A; produced in S. cerevisiae
B11: ID-A39U (VHH)
VHH: B1 VHH with E44G, K87R, S88A
notes: V7R-2E9 with E44G, K87R, S88A
B12: V7R-2B6 (VHH)
VHH: EVQLVESGGGLVQAGGSLRLSCESSARTFSDDAMGWFRQAAGKEREFLAAINWSGAVTHYGDSVKGRFTISRDNAKNTVYLQMDSLKPEDTAVYYCAEDYDTDVWQHWGQGTQVTVSS
notes: as for B2
B13: human IL-7Rα (receptor)
chain: T1 chain
notes: native receptor on human lymphocytes, monocytes and UC biopsy tissue in the cell assays; also called CD127
B14: ID-A59U (VHH)
VHH: B1 VHH with E1D, Q65K, K87R, S88A
notes: V7R-2E9 with E1D, Q65K, K87R, S88A; S. cerevisiae-expressed equivalent of ID-A40U
B15: cynomolgus monkey IL-7Rα (receptor)
chain: T1 chain with N64S, E93G, T159M, K174N, A178E, S215P
notes: also called cynomolgus IL-7Rα

How the values were obtained:
[1] = target: T1, recombinant human IL-7Rα-His6-Fc; assay: TSLP/TSLPR/IL-7R ELISA; inhibition of L-TSLP/TSLP-R complex binding to plate-coated IL-7Rα-His6-Fc
Protocol: (§1) 96-well plates were coated with 0.25 μg/mL recombinant human IL-7Rα-His₆-Fc+ 5 μg/mL BSA and then blocked. […] Then the mixtures were incubated for 30 minutes to allow binding before adding to the IL-7Rα coated plates.

human IL-7Rα [2] = target: B13; assay: cell-based or functional assay
[3] = target: T1, recombinant human IL-7Rα-His6-Fc; assay: IL-7/IL-7R neutralisation ELISA; inhibition of IL-7 binding to IL-7R
human IL-7Rα [4] = target: B13; assay: cell-based or functional assay
[5] = target: T1, recombinant human IL-7Rα-His6-Fc; assay: IL-7/IL-7R neutralisation ELISA; inhibition of IL-7 binding to IL-7R
Protocol: A 7-point dilution series of the clones was prepared in 1% BSA (at 2× the assay concentration) starting at 300 nM and using a 3.2 dilution factor. […] Block buffer alone was also added to each plate as blank. […] TMB reaction was stopped after 30 minutes. […]

[6] = target: T1, recombinant human IL-7Rα-His6-Fc; assay: IL-7/IL-7R neutralising ELISA; inhibition of IL-7 binding to IL-7R
Protocol: (§2) A 7-point dilution series of the clones was prepared in 1% BSA (at 2× the assay concentration) starting at 300 nM and using a 3.2 dilution factor. […] Block buffer alone was also added to each plate as blank. […] TMB reaction was stopped after 30 minutes.
EC₅₀ values were generated in Graphpad prism using the ELISA signal blank corrected A450 data and ‘log(inhibitor) vs. response—Variable slope (four parameters)’ to fit curves and generate EC₅₀.

[7] = target: T1, recombinant human IL-7Rα-His6-Fc; assay: IL-7/IL-7Rα-His6-Fc ELISA; inhibition of IL-7 binding to IL-7R
[8] = target: T1, recombinant human IL-7Rα-His6-Fc; assay: IL-7/IL-7R neutralising ELISA; inhibition of IL-7 binding to IL-7R
Protocol: as §2

[9] = target: T1, recombinant human IL-7Rα-His6-Fc; assay: TSLP/TSLPR/IL-7R ELISA; inhibition of L-TSLP/TSLP-R complex binding to plate-coated IL-7Rα-His6-Fc
Protocol: as §1
A subtraction was performed on the data set before graphing which normalised to the highest concentration of antibody tested (to overcome a high level of background on the plate).

cynomolgus monkey IL-7Rα [10] = target: B15; assay: competition ELISA: A62U premixed with serially diluted soluble IL-7R, then added to plate-coated human IL-7Rα-His6-Fc; bound ICVD detected [right panel (cross-reactivity A62U]
Protocol: (§3) 96-well plates were coated with 0.5 μg/mL recombinant human IL-7Rα His₆-Fc +5 μg/mL BSA and then blocked. 0.5 nM of ICVD was mixed 1:1 with the test compounds of choice serially diluted in 1% BSA, then incubated for 30 minutes to allow binding before adding to the IL-7Rα coated plates. Following 2 hours incubation, bound ICVD was detected with 50 uL/well 1/20000 anti-FLAG-HRP Goat antibody (GeneTex, GTX21238), and the level of neutralisation of ICVD-IL-7Rα binding by the test compounds was determined.

[11] = target: T1, recombinant human IL-7Rα-His6-Fc; assay: IL-7/IL-7R neutralisation ELISA; inhibition of IL-7 binding to IL-7R
ID-A40U [12] = target: T2, ID-A40U; assay: competition ELISA: ID-A40U premixed with serially diluted soluble receptor, then added to plate-coated human IL-7Rα; bound ICVD detected [right panel]
T2 construct: V7R-2E9 with Q65K, K87R, S88A; produced in E. coli; also called A40U-F/H; not shown: Flag-His6 tag
Protocol: as §3

ID-A40U [13] = target: T2, ID-A40U; assay: competition ELISA: ID-A40U premixed with serially diluted soluble IL-7R, then added to plate-coated human IL-7Rα-His6-Fc; bound ICVD detected
Protocol: as §3

ID-A40U [14] = target: T2, ID-A40U; assay: competition ELISA: ID-A40U premixed with serially diluted soluble receptor, then added to plate-coated human IL-7Rα; bound ICVD detected [left panel]
Protocol: as §3

cynomolgus monkey IL-7Rα [15] = target: B15; assay: competition ELISA: A59U premixed with serially diluted soluble IL-7R, then added to plate-coated human IL-7Rα-His6-Fc; bound ICVD detected [left panel (cross-reactivity A59U]
Protocol: as §3

ID-A59U = target: B14; assay: as above
Protocol: as §3

ID-A62U = target: B10; assay: competition ELISA: A62U premixed with serially diluted soluble IL-7R, then added to plate-coated human IL-7Rα-His6-Fc; bound ICVD detected [right panel (cross-reactivity A62U]
Protocol: as §3

Binder: B1
- EC50 [1]: 0.32 nM
- IL-7 induced pSTAT5 in hPBMCs EC50 (human IL-7Rα [2]): 2.86 nM
- EC50 [3]: 0.818 nM
- IL-7 induced pSTAT5 in hPBMCs EC50 (human IL-7Rα [4]): 2.86 nM
- EC50 [5]: 0.37 to 0.67 nM
- EC50 [6]: 0.368 nM
- EC50 [7]: 0.6 nM
- EC50 [8]: 0.818 nM

Binder: B2
- EC50 [6]: 0.361 nM

Binder: B3
- EC50 [7]: 0.845 nM

Binder: B4
- EC50 [6]: 0.416 nM

Binder: B5
- EC50 [6]: 0.64 nM

Binder: B6
- EC50 [7]: 0.797 nM

Binder: B7
- EC50 [6]: 0.222 nM

Binder: B8
- EC50 [6]: 0.259 nM

Binder: B9
- EC50 [7]: 0.789 nM

Binder: B10
- EC50 [9]: 0.74 nM
- binding result (cynomolgus monkey IL-7Rα [10]): binds
- EC50 [11]: 0.4 nM

Binder: B11
- EC50 [7]: 0.411 nM

Binder: B12
- EC50 [6]: 0.264 nM

Binder: B13
- IC50 (read off the curve) (ID-A40U [12]): ~0.02 µg/mL
- IC50 (read off the curve) (ID-A40U [13]): ~0.03 µg/mL
- IC50 (read off the curve) (ID-A40U [14]): ~0.02 µg/mL

Binder: B14
- binding result (cynomolgus monkey IL-7Rα [15]): binds

Binder: B15
- IC50 (read off the curve) (ID-A59U): ~0.03 µg/mL
- IC50 (read off the curve) (ID-A40U [13]): ~0.01 µg/mL
- IC50 (read off the curve) (ID-A62U): ~0.02 µg/mL
